Reference: patent publication US20180312579A1 (Genentech, published 2018)

How the values were obtained:
[1] = target: T1, human RSPO3 with C-terminal HA tag, stably expressed in 293 cells (human, UniProt Q9BXY4 22-272); experiment: IHC, FFPE 293 cell pellet, RSPO3 Low
T1 construct: Whole open reading frame expressed in HEK-293 cells (high, medium, low); FFPE pellets; also called hRSPO3; RSPO3 Hi
T1 sequence: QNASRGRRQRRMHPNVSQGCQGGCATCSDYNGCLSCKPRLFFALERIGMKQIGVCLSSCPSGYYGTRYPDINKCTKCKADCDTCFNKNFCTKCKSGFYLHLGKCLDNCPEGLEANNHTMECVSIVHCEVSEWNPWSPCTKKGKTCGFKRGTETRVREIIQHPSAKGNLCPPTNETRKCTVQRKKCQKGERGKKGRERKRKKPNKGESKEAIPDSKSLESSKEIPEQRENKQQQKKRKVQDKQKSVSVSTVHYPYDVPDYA

[2] = target: T2, FLAG-tagged human RSPO3 (Genentech) (human, UniProt Q9BXY4 22-272); experiment: competitive binding ELISA: titrated against biotinylated RNF43-Flag (RNF43-ECD) binding to plate-coated hRSPO3; signal = bound RNF43, normalized OD
T2 construct: also called hRSPO3; RSPO3 coated plates; not shown: FLAG tag
T2 sequence: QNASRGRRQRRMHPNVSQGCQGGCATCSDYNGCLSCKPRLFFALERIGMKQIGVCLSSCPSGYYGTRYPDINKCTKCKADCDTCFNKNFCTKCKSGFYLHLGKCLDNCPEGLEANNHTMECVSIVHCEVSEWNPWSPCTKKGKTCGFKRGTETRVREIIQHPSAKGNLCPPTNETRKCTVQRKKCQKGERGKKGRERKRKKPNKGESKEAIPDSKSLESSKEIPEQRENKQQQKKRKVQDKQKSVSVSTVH

[3] = target: T1, human RSPO3 with C-terminal HA tag, …; experiment: IHC, FFPE 293 cell pellet, RSPO3 Hi
[4] = target: T2, FLAG-tagged human RSPO3 (Genentech); experiment: competitive binding ELISA: antibody titrated against LGR4-Fc (LGR4-ECD) binding to plate-coated hRSPO3; signal = bound LGR4-Fc, OD(450/630)/OD no antibody
How it was run: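 Plates coated with 0.5 μg/ml hRSPO2 or hRSPO3 at pH 9.6 were incubated 2 h at room temperature with antibody (0.078-10 […] dilutions) plus 0.1 μg/ml LGR4-Fc. Bound LGR4-Fc was detected by HRP anti-human Fc and TMB, with absorbance read at 450 nm.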

[5] = target: T1, human RSPO3 with C-terminal HA tag, …; experiment: IHC, FFPE 293 cell pellet, RSPO3 Med
[6] = target: T3, human RSPO4 with C-terminal HA tag, stably expressed in 293 cells (human, UniProt Q2I0M5 20-234); experiment: IHC, FFPE 293 cell pellet, RSPO4 Hi; - = not significant staining
T3 construct: also called hRSPO4; RSPO4 Hi
T3 sequence (Q2I0M5 other isoform, or with tags, fused parts or gaps limits assumed): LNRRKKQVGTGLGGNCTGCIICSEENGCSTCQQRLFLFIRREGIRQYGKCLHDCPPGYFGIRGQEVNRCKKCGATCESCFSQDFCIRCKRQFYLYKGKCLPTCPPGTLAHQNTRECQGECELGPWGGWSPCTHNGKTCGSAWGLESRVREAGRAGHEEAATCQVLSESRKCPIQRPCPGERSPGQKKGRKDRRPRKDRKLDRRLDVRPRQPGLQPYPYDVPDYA

mouse RSPO3 = target: T4, mouse RSPO3 (mouse, UniProt Q2TJ95 22-277, limits assumed); experiment: cell-based or functional assay
T4 sequence (looked up): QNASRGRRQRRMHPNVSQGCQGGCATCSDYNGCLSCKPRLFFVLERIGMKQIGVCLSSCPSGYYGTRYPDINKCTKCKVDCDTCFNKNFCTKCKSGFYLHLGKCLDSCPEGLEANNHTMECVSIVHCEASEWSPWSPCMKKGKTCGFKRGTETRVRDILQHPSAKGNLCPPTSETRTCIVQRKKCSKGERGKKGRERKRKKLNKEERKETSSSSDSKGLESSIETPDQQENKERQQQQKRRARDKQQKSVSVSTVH

cynomolgus RSPO3 = target: T5, cynomolgus RSPO3 (cynomolgus, UniProt A0A2K5UTQ7 22-273); experiment: cell-based or functional assay
T5 sequence: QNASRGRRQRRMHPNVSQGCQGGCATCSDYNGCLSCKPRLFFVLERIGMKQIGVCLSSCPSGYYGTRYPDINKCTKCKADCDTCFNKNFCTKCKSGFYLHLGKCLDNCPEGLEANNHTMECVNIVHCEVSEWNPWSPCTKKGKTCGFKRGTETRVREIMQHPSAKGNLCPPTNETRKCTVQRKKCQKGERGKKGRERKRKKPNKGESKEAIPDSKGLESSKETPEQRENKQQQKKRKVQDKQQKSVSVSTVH

cynomolgus RSPO2 = cynomolgus RSPO2 (cynomolgus, UniProt G7PCH9 22-243); experiment: cell-based or functional assay
Sequence of cynomolgus RSPO2 (G7PCH9 entry or part of it): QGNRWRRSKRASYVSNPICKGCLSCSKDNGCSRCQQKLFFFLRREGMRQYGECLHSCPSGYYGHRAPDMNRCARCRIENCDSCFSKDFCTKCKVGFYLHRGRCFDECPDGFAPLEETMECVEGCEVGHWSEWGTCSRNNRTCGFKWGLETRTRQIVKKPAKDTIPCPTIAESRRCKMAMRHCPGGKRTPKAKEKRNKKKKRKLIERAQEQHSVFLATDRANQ

recombinant human RSPO3 = target: T6, recombinant human RSPO3 (human, UniProt Q9BXY4 22-272); experiment: cell-based or functional assay
T6 sequence: T2 sequence

recombinant human RSPO2 = recombinant human RSPO2 (human, UniProt Q6UXX9 22-243); experiment: cell-based or functional assay
Sequence of recombinant human RSPO2 (Q6UXX9 22-243): as the sequence (G7PCH9 entry or part of it) above, with A160V, P165L, A178T counted along it

mouse RSPO2 = mouse RSPO2 (mouse, UniProt Q8BFU0 22-205, limits assumed); experiment: cell-based or functional assay
Sequence of mouse RSPO2 (Q8BFU0 22-205 limits assumed): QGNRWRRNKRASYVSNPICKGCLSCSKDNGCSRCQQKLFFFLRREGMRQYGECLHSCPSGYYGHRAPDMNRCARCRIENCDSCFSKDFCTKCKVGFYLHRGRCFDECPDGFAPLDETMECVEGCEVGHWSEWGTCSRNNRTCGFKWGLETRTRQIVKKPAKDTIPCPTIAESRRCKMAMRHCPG

[7] = target: T7, human RSPO2 with C-terminal HA tag, stably expressed in 293 cells (human, UniProt Q6UXX9 22-243); experiment: IHC, FFPE 293 cell pellet, RSPO2 Hi; - = not significant staining
T7 construct: Whole open reading frame was expressed from a lentiviral vector in HEK-293 cells sorted for high, medium or low expression; formalin-fixed paraffin-embedded pellets; also called hRSPO2; RSPO2 Hi
T7 sequence (Q6UXX9 other isoform, or with tags, fused parts or gaps): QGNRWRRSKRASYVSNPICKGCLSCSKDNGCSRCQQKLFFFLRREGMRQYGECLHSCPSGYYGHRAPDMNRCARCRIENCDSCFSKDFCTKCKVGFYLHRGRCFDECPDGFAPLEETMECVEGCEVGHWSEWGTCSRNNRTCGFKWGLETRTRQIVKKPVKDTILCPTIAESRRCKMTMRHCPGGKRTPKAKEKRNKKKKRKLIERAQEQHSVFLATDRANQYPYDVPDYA

[8] = target: T8, human RSPO1 with C-terminal HA tag, stably expressed in 293 cells (human, UniProt Q2MKA7 21-263); experiment: IHC, FFPE 293 cell pellet, RSPO1 Hi; - = not significant staining
T8 construct: also called hRSPO1; RSPO1 Hi
T8 sequence (Q2MKA7 other isoform, or with tags, fused parts or gaps limits assumed): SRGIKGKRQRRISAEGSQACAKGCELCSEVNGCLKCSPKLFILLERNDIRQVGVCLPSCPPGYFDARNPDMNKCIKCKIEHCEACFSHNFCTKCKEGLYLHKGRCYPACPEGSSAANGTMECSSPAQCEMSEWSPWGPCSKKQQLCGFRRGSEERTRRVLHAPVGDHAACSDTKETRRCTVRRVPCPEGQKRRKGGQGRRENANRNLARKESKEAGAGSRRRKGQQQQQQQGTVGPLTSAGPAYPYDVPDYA

percentage of cells staining [1]: 20%
IC50 (read off the curve) [2]: ~0.08 µg/mL
percentage of cells staining [3]: 90%
IC50 (read off the curve) [4]: ~0.1 µg/mL
percentage of cells staining [5]: 80%
binding result [6]: no binding
IC50, WNT luciferase reporter, bivalent antibody (mouse RSPO3): 500 pM
IC50, WNT luciferase reporter, bivalent antibody (cynomolgus RSPO3): 310 pM
IC50, WNT luciferase reporter, bivalent antibody (cynomolgus RSPO2): > 500000 pM
IC50, WNT luciferase reporter, bivalent antibody (recombinant human RSPO3): 90 pM
IC50, WNT luciferase reporter, bivalent antibody (recombinant human RSPO2): > 500000 pM
IC50, WNT luciferase reporter, bivalent antibody (mouse RSPO2): > 500000 pM
binding result [7]: no binding
binding result [8]: no binding
B1: 5E11 (antibody, V domains shown)
VH: QVQLKQSGPGLVQPSQSLSITCTVSGFSLSSYAVHWVRQSPGEGLEWLGVIWSGGSTDYNAAFISRMSITKDNSKSQVFFKMNSLQADDTAIYFCARNDGYYYFDYWGQGTTLTVSS
VL: DIVMTQSTSSLSASLGDRVTISCRASQDISNYLNWYQQKPDGTVKLLIYYTSRLHSGVPSRFSGSGSGTDYSLTISNLEKEDVATYFCQHGDTLPPTFGGGTKLEIK
notes: also called monoclonal antibody 5E11
